{
  "source": "paper PMC5680793",
  "key": {"[1]": {"molecular_target": "Mouse IgG2b (wild-type) (mouse)", "experiment": "ITC"}, "[2]": {"molecular_target": "His-tagged mouse FcRn (mouse) (UniProt Q61559)", "sequence (Q61559 22-297, chain 1 of 2)": "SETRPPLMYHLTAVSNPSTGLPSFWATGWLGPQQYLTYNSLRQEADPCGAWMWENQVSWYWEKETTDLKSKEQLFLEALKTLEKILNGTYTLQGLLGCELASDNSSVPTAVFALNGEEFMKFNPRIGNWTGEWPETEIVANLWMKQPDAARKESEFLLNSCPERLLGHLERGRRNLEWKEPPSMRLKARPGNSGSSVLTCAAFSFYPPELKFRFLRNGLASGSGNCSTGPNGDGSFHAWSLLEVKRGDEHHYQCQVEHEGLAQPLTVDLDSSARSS", "sequence (P01887 21-119, chain 2 of 2, further chain)": "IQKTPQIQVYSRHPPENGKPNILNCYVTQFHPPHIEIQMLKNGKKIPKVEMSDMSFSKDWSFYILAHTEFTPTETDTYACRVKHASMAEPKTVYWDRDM", "experiment": "BLI"}},
  "data": [
    {"substance": "Z34C peptide", "values": [
      {"measurement": "Kd", "setting": "[1]", "result": 2.6, "unit": "µM"}
    ]},
    {"substance": "Mouse IgG2a P307T, Q309L (antibody)", "values": [
      {"measurement": "fold change of relative kon against wild-type IgG2a", "setting": "[2]", "result": 2.7, "unit": "fold"}
    ]}
  ]
}
